Literature values, collected in PMC11266353, “Synthesis of a highly thermostable insulin by phenylalanine conjugation at B29 Lysine” (Communications Chemistry, 2024).

Set-up: method as in Protein J., 2023, 42, 383
Conditions: ref Protein J., 2023, 42, 383

Modified insulin: insulin analog reported in Protein J., 2023, 42, 383: tri-acetylated at Gly A1, Phe B1 and Lys B29
Melting temperature: 72.5 °C
